Assay results reported in paper PMC10397247.
Where two headings read alike, the source gives them in different places.

Columns and labels:
Experiment in all cases: two-hybrid library CCNG1;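 further: natural log of median RNA to DNA barcode read ratio; higher means stronger binding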
P5mS = target: T1, P5mS
T1 chain: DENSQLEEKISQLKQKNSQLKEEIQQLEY

P6mS = target: T2, P6mS
T2 chain: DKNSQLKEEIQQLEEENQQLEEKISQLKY

P7mS = target: T3, P7mS
T3 chain: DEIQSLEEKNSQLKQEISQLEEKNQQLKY

P8mS = target: T4, P8mS
T4 chain: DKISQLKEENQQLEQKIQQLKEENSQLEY

P9mS = target: T5, P9mS
T5 chain: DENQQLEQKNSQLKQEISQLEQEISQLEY

P3A = target: T6, P3A
T6 chain: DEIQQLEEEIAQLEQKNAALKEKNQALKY

P4A = target: T7, P4A
T7 chain: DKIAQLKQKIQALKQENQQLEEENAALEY

P5A = target: T8, P5A
T8 chain: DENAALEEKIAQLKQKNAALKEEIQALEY

P6A = target: T9, P6A
T9 chain: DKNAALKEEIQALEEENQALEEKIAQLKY

P7A = target: T10, P7A
T10 chain: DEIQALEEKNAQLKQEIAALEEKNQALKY

P8A = target: T11, P8A
T11 chain: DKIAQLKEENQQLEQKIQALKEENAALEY

P9A = target: T12, P9A
T12 chain: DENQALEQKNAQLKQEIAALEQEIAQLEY

P3A-bH = target: T13, P3A-bH
T13 chain: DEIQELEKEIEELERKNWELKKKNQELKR

P4A-bH = target: T14, P4A-bH
T14 chain: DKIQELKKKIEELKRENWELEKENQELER

P5A-bH = target: T15, P5A-bH
T15 chain: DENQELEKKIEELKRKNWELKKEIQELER

P6A-bH = target: T16, P6A-bH
T16 chain: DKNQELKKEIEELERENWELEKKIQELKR

P7A-bH = target: T17, P7A-bH
T17 chain: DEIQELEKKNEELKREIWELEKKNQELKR

P8A-bH = target: T18, P8A-bH
T18 chain: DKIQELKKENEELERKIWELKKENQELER

P9A-bH = target: T19, P9A-bH
T19 chain: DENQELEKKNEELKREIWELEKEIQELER

4H235-bH = target: T20, 4H235-bH
T20 chain: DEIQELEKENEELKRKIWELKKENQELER

4H2444-bH = target: T21, 4H2444-bH
T21 chain: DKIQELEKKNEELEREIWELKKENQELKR

4H2518-bH = target: T22, 4H2518-bH
T22 chain: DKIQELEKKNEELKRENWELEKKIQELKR

4H2585-bH = target: T23, 4H2585-bH
T23 chain: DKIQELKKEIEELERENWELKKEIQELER

4H264-bH = target: T24, 4H264-bH
T24 chain: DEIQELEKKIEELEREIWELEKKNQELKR

4H2760-bH = target: T25, 4H2760-bH
T25 chain: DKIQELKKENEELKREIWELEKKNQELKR

4H2859-bH = target: T26, 4H2859-bH
T26 chain: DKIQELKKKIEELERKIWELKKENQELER

4H2931-bH = target: T27, 4H2931-bH
T27 chain: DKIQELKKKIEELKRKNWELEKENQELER

4H2944-bA = target: T28, 4H2944-bA
T28 chain: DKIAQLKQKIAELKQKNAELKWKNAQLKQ

4H3041-bH = target: T29, 4H3041-bH
T29 chain: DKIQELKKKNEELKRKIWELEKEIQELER

4H3297-bH = target: T30, 4H3297-bH
T30 chain: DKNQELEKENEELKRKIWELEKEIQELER

4H3364-bH = target: T31, 4H3364-bH
T31 chain: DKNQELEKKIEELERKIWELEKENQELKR

4H3381-bH = target: T32, 4H3381-bH
T32 chain: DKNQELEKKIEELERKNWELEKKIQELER

4H349-bH = target: T33, 4H349-bH
T33 chain: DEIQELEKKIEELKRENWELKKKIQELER

4H56-bH = target: T34, 4H56-bH
T34 chain: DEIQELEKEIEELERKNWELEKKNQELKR

4H730-bH = target: T35, 4H730-bH
T35 chain: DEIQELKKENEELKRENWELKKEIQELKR

4H796-bH = target: T36, 4H796-bH
T36 chain: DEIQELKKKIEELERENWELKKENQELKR

4H932-bH = target: T37, 4H932-bH
T37 chain: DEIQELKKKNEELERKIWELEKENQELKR

4H949-bH = target: T38, 4H949-bH
T38 chain: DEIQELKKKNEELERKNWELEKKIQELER

4H3632-bN = target: T39, 4H3632-bN
T39 chain: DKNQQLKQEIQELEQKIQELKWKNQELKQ

4H496-bN = target: T40, 4H496-bN
T40 chain: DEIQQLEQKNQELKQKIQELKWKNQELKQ

P1mSN = target: T41, P1mSN
T41 chain: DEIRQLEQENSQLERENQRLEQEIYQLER

4H342-bA = target: T42, 4H342-bA
T42 chain: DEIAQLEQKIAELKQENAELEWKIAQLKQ

4H48-bA = target: T43, 4H48-bA
T43 chain: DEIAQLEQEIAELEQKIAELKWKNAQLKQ

4H491-bA = target: T44, 4H491-bA
T44 chain: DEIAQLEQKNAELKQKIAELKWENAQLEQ

P8SH = target: T45, P8SH
T45 chain: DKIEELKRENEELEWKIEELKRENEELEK

4H1831-bH = target: T46, 4H1831-bH
T46 chain: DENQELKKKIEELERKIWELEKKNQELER

4H2586-bH = target: T47, 4H2586-bH
T47 chain: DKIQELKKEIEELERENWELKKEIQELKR

4H2627-bH = target: T48, 4H2627-bH
T48 chain: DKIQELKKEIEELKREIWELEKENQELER

4H2673-bH = target: T49, 4H2673-bH
T49 chain: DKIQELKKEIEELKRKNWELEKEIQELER

4H2702-bH = target: T50, 4H2702-bH
T50 chain: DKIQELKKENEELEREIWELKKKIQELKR

4H3010-bH = target: T51, 4H3010-bH
T51 chain: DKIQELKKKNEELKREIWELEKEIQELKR

4H3112-bH = target: T52, 4H3112-bH
T52 chain: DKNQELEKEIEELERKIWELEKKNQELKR

4H3427-bH = target: T53, 4H3427-bH
T53 chain: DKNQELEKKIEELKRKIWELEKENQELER

4H346-bH = target: T54, 4H346-bH
T54 chain: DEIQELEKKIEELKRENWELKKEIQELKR

4H3926-bH = target: T55, 4H3926-bH
T55 chain: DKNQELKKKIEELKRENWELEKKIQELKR

4H4073-bH = target: T56, 4H4073-bH
T56 chain: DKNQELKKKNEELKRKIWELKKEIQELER

4H457-bH = target: T57, 4H457-bH
T57 chain: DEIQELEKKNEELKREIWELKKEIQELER

4H575-bH = target: T58, 4H575-bH
T58 chain: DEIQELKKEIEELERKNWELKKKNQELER

4H626-bH = target: T59, 4H626-bH
T59 chain: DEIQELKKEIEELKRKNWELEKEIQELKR

4H683-bH = target: T60, 4H683-bH
T60 chain: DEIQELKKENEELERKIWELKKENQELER

4H754-bH = target: T61, 4H754-bH
T61 chain: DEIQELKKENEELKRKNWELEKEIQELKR

4H780-bH = target: T62, 4H780-bH
T62 chain: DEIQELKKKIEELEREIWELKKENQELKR

4H797-bH = target: T63, 4H797-bH
T63 chain: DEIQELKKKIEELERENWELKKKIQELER

4H855-bH = target: T64, 4H855-bH
T64 chain: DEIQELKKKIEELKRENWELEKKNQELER

4H918-bH = target: T65, 4H918-bH
T65 chain: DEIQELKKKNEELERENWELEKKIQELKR

4H953-bH = target: T66, 4H953-bH
T66 chain: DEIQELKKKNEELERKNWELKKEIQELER

4H968-bH = target: T67, 4H968-bH
T67 chain: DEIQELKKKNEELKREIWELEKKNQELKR

O4 = target: T68, O4
T68 chain: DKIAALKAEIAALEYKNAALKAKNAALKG

DENSQLEEKISQLKQKNSQLKEEIQQLEY [P5mS]
interaction score (P5mS): -1.66
interaction score (P6mS): -0.081
interaction score (P7mS): -1.25
interaction score (P8mS): -1.17
interaction score (P9mS): -2.82

DEIQQLEEEIAQLEQKNAALKEKNQALKY [P3A]
interaction score (P3A): -0.882
interaction score (P4A): 2.6
interaction score (P5A): -0.901
interaction score (P6A): -0.905
interaction score (P7A): -0.23
interaction score (P8A): -0.435
interaction score (P9A): 0.0927

DKIQELKKKNEELKRKNWELKKKIQELKR [P2A-bH]
interaction score (P3A-bH): -1.95
interaction score (P4A-bH): 0.539
interaction score (P5A-bH; mean of both orientations): -1.23
interaction score (P6A-bH): -0.802
interaction score (P7A-bH): -0.557
interaction score (P8A-bH): 0.132
interaction score (P9A-bH): -1.02

DEIQELEKEIEELERKNWELKKKNQELKR [P3A-bH]
interaction score (P3A-bH): -0.68
interaction score (P4A-bH): 1.77
interaction score (P5A-bH): 0.779
interaction score (P6A-bH): 0.553
interaction score (P7A-bH): 0.468
interaction score (P8A-bH): -1.03
interaction score (P9A-bH): 0.465

DEIQELEKENEELKRKIWELKKENQELER [4H235-bH]
interaction score (4H235-bH): 0.982
interaction score (4H2444-bH): 0.0109
interaction score (4H2518-bH): -0.135
interaction score (4H2585-bH): -1.55
interaction score (4H264-bH): -0.718
interaction score (4H2760-bH): 1.12
interaction score (4H2859-bH): 0.589
interaction score (4H2931-bH): -0.301
interaction score (4H2944-bA): -0.835
interaction score (4H3041-bH): 0.0126
interaction score (4H3297-bH): 0.0762
interaction score (4H3364-bH): -0.442
interaction score (4H3381-bH): 0
interaction score (4H349-bH): 0.108
interaction score (4H56-bH): 0.0558
interaction score (4H730-bH): -0.176
interaction score (4H796-bH): -0.693
interaction score (4H932-bH): -0.443
interaction score (4H949-bH): -0.845

DKNQQLKQEIQELEQKIQELKWKNQELKQ [4H3632-bN]
interaction score (4H3632-bN): 1.05
interaction score (4H496-bN): -0.174
interaction score (P1mSN): -0.649

DKIAQLKQKIAELKQKNAELKWKNAQLKQ [4H2944-bA]
interaction score (4H2944-bA): -0.797
interaction score (4H342-bA): 1.77
interaction score (4H48-bA): -1.05
interaction score (4H491-bA): -0.569

DKIEELKRENEELEWKIEELKRENEELEK [P8SH]
interaction score (P8SH): -0.00526

DEIQELEKENEELERENWELEKEIQELER [P1A-bH]
interaction score (P3A-bH): -1.59
interaction score (P4A-bH): -0.5
interaction score (P5A-bH): -0.798
interaction score (P6A-bH): -0.616
interaction score (P7A-bH): -0.716
interaction score (P8A-bH): -0.232
interaction score (P9A-bH): -1.36

DENQELKKKIEELERKIWELEKKNQELER [4H1831-bH]
interaction score (4H1831-bH): -0.611
interaction score (4H2586-bH): -1.54
interaction score (4H2627-bH): 1.87
interaction score (4H2673-bH): 0.349
interaction score (4H2702-bH): 0.297
interaction score (4H3010-bH): 1.32
interaction score (4H3112-bH): -0.582
interaction score (4H3427-bH): 0.584
interaction score (4H346-bH): 0.11
interaction score (4H3926-bH): -0.549
interaction score (4H4073-bH): -0.216
interaction score (4H457-bH): 0.724
interaction score (4H575-bH): -1.81
interaction score (4H626-bH): 1.02
interaction score (4H683-bH): -0.934
interaction score (4H754-bH): 0.0674
interaction score (4H780-bH): 0.511
interaction score (4H797-bH): -1.12
interaction score (4H855-bH): -0.184
interaction score (4H918-bH): -0.221
interaction score (4H953-bH): -0.749
interaction score (4H968-bH): -2.37
interaction score (O4): -1.48
